{"source": "patent US20200140501A1", "about": "(published 2020)", "binders": {"B1": {"name": "human angiopoietin-1 (Ang-1) (ligand, UniProt Q15389 20-498, looked up)", "chain": "SNQRRSPENSGRRYNRIQHGQCAYTFILPEHDGNCRESTTDQYNTNALQRDAPHVEPDFSSQKLQHLEHVMENYTQWLQKLENYIVENMKSEMAQIQQNAVQNHTATMLEIGTSLLSQTAEQTRKLTDVETQVLNQTSRLEIQLLENSLSTYKLEKQLLQQTNEILKIHEKNSLLEHKILEMEGKHKEELDTLKEEKENLQGLVTRQTYIIQELEKQLNRATTNNSVLQKQQLELMDTVHNLVNLCTKEGVLLKGGKREEEKPFRDCADVYQAGFNKSGIYTIYINNMPEPKKVFCNMDVNGGGWTVIQHREDGSLDFQRGWKEYKMGFGNPSGEYWLGNEFIFAITSQRQYMLRIELMDWEGNRAYSQYDRFHIGNEKQNYRLYLKGHTGTAGKQSSLILHGADFSTKDADNDNCMCKCALMLTGGWWFDACGPSNLNGMFYTAGQNHGKLNGIKWHYFKGPSYSLRSTTMMIRPLDF", "notes": "also called hAng-1; human Ang-1"}}, "biological_target": "T1, hNGAL lipocalin mutein SEQ ID NO: 1", "T1 chain": "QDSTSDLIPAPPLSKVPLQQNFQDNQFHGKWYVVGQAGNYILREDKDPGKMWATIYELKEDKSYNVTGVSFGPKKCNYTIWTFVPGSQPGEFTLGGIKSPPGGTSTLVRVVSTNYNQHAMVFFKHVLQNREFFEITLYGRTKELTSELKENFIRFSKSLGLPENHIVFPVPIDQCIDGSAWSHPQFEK", "assay": "solution competition ELISA: ligand titrated against 0.1 nM SEQ ID NO: 1, free mutein captured on immobilised hAng-2", "procedure": "In the following detailed experimental protocol, incubation and washing steps were performed as described above in the competition ELISA protocol (see Example 5).\nThe residual supernatants were discarded and 20 μl HRP-labeled anti-lipocalin-mutein antibody was added at a predetermined optimal concentration in PBS-T/BSA and incubated for 1 h at RT. […] After washing, 20 μl fluorogenic HRP substrate (Quantablue, Pierce) was added to each well, and the reaction was allowed to proceed for 60 minutes. The fluorescence intensity of every well on the plate was read using a Genios Plus Microplate reader (Tecan)."}
{"binder": "B1", "values": [{"measurement": "IC50", "value": "> 0.1", "unit": "µM"}]}
